Data as given in patent publication US20130236944A1, “METHODS FOR THE INACTIVATION OF ANTIBIOTICS” (priority 2011, published 2013).

Assay: Inactivation of amoxicillin by lipases
Type: biochemical, Bacillus subtilis
Conditions: in 168 h, antibiotic 5.15 μg/, approximately 20° C.
Description: The plates are incubated 18 hours at 37° C.
In this example, the indicator bacterial strains sensitive to beta-lactam antibiotics (e.g. amoxicillin) and macrolide antibiotics were Bacillus subtilis (CIP 52.62) and Micrococcus luteus (CIP 53.45) respectively. All inactivation studies were performed with final antibiotic concentrations of 5.15 μg/. Lipases were used at final concentrations of 2.5 mg/mL (referred as ‘High concentration’) and 0.5 mg/mL (referred as ‘Low concentration’); they were obtained from Codexis.

B1: Lipase from Pseudomonas cepacia P1: Lipase from Pseudomonas cepacia (also called Bulkholderia cepacia) P1, obtained from Codexis (protein, UniProt P22088 45-364, looked up)
Triacylglycerol lipase: AAGYAATRYPIILVHGLSGTDKYAGVLEYWYGIQEDLQQNGATVYVANLSGFQSDDGPNGRGEQLLAYVKTVLAATGATKVNLVGHSQGGLSSRYVAAVAPDLVASVTTIGTPHRGSEFADFVQDVLAYDPTGLSSSVIAAFVNVFGILTSSSHNTNQDALAALQTLTTARAATYNQNYPSAGLGAPGSCQTGAPTETVGGNTHLLYSWAGTAIQPTLSVFGVTGATDTSTLPLVDPANVLDLSTLALFGTGTVMINRGSGQNDGLVSKCSALYGKVLSTSYKWNHLDEINQLLGVRGAYAEDPVAVIRTHANRLKLAGV
Question: Which Amoxicillin inactivation (enzyme H (High concentration, 2.5 mg/mL)) does the source give for B1 here?
Answer: +++ in 168 h (100% inactivation = the residual concentration of antibiotic is smaller than the limit of detection of the microbiological test)

Question: And the Amoxicillin inactivation (enzyme L (Low concentration, 0.5 mg/mL))?
Answer: +++ in 168 h (100% inactivation = the residual concentration of antibiotic is smaller than the limit of detection of the microbiological test)
